The text below walks through data of patent US20120076782A1 (MorphoSys, published 2012).

The target of experiment [1] is T1, human CD38 on cells or tissue (human, UniProt P28907 1-300). As to the kind of experiment: FACS Scatchard, IgG1 on RPMI8226 MM cells; mean of at least 2 determinations.
Experiment [2] addresses T1, human CD38 on cells or tissue. As to the kind of experiment: cell-based or functional assay.
Experiment [3] has the same target.
The target of another experiment is CD20 on cell lines (UniProt P11836). Kind of experiment: cell-based or functional assay.
Experiment [4] concerns the target T1, human CD38 on cells or tissue. As to the kind of experiment: cell-based or functional assay. The source holds these as a separate data set.
Experiment [5] shares this target. As to the kind of experiment: cell-based or functional assay. This is another data set of the same source.
Experiment [6] deals with T2, bovine serum albumine (bovine, UniProt P02769 25-607).
T2 construct: Control antigen coated on ELISA wells; also called BSA
As to the kind of experiment: ELISA; antigen coated at 5 µg/ml, anti-human Fab alkaline phosphatase conjugate, fluorescence Ex/Em 430/535 nm. In general terms: ELISA stands for enzyme-linked immunosorbent assay.

In experiment [7] the target is T3, hCD38 Fc fusion protein (aa 45-273) (human, UniProt P28907 45-273).
T3 construct: Making of this construct is not described; also called C-terminally deleted format; not shown: Fc part (not described for this construct)
The description is as above.

In experiment [8] the target is T2, bovine serum albumine. Kind of experiment: ELISA; antigen coated at 5 µg/ml, anti-murine Fab alkaline phosphatase conjugate, fluorescence Ex/Em 430/535 nm.
Experiment [9] addresses T3, hCD38 Fc fusion protein (aa 45-273). The description is as above.
The target in experiment [10] is T4, cynomolgus monkey CD38 on cells or tissue (cynomolgus monkey, UniProt Q5VAN0 1-301).
T4 construct: whole, on cells
As to the kind of experiment: FACS on lymphocytes; IHC on spleen, lymph-nodes.

Experiment [11] deals with T5, hCD38 Fc fusion protein (aa 45-300) (human, UniProt P28907 45-300).
T5 construct: produced in HEK293; also called full-length hCD38 Fc-fusion protein; soluble CD38-Fc
Kind of experiment: SPR (Biacore 3000), Fab over directly immobilized CD38-Fc fusion protein; mean of at least 2 determinations.

Experiment [12] deals with T1, human CD38 on cells or tissue. As to the kind of experiment: cell-based or functional assay. This is another data set of the same source.
The target is the same in experiment [13]. As to the kind of experiment: cell-based or functional assay. This is another data set of the same source.

For orientation: Kd means the concentration at which binding is half-saturated.

Like-named read-outs stand apart in the source and are kept apart here.

T2 sequence (P02769 25-607 limits assumed): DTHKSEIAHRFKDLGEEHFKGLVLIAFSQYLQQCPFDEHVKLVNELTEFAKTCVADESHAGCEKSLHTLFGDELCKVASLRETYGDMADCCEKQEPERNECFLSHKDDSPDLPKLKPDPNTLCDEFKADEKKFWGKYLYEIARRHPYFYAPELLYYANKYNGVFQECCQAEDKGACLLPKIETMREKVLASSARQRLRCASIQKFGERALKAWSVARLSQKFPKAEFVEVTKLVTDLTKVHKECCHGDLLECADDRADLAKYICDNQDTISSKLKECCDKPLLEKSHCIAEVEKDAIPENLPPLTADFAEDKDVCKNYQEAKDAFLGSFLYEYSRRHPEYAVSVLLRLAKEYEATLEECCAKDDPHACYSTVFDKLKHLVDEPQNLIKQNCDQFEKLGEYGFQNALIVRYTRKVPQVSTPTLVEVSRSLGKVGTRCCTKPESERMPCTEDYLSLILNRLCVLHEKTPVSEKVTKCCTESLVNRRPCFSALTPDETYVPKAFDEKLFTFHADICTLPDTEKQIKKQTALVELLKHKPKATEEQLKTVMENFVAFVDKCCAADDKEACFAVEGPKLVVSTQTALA
Chain of CD20 on cell lines (P11836 whole entry): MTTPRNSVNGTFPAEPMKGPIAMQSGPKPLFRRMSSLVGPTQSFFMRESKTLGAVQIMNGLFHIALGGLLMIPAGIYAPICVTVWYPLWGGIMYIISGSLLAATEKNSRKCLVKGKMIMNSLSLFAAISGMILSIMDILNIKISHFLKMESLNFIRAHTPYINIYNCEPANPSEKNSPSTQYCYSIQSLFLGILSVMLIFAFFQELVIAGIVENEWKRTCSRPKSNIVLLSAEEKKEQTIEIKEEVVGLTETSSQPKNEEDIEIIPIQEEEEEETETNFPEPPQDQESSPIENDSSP
T4 sequence (Q5VAN0 whole entry): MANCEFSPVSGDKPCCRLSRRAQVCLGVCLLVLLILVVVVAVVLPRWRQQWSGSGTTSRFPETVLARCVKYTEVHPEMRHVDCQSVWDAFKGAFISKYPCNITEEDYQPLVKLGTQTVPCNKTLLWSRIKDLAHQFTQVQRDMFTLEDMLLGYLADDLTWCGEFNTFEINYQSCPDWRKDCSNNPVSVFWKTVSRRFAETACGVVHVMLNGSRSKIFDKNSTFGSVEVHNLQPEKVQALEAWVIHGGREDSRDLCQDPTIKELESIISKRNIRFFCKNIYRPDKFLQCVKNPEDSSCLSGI

chimeric OKT10 (antibody): the dissociation constant Kd in experiment [1] came to 8.28 nM. Moreover, in [2], the ADCC EC50 [nM], LP-1 target cells was 5.23 nM; the ADCC EC50 [nM], RPMI8226 target cells amounted to 4.1 nM; the CDC EC50 [nM], CHO-transfectants was found to be 9.3 nM. Besides, the max. specific killing in ADCC, NCI-H929 cells (MM), E:T 30:1, 5 µg/ml; column PC in [3] was 54%.
In the experiment with CD20 on cell lines, Rituximab (antibody) came in with a Namalwa (max. spec. Killing), o/n incubation of less than 1% and a Raji (max. spec. killing), o/n incubation of 9%.

B1: MOR03080 human IgG1 (antibody, V domains shown)
VH: QVQLVESGGGLVQPGGSLRLSCAASGFTFSSYGMHWVRQAPGKGLEWVSNIYSDGSNTFYADSVKGRFTISRDNSKNTLYLQMNSLRAEDTAVYYCARNMYRWPFHYFFDYWGQGTLVTVSS
VL: DIELTQPPSVSVAPGQTARISCSGDNIGNKYVSWYQQKPGQAPVVVIYGDNNRPSGIPERFSGSNSGNTATLTISGTQAEDEADYYCSSYDSSYFVFGGGTKLTVLG
notes: also called MAb#3
In [1], B1 yielded a dissociation constant (Kd) of 0.47 nM. In [4], the “ADCC EC50 [nM], LP-1 target cells” value was found to be 0.17 nM; the “ADCC EC50 [nM], RPMI8226 target cells” value stood at 0.05 nM; the “CDC EC50 [nM], CHO-transfectants (mean from 2 determinations)” value (from here on “CDC EC50 … (mean from 2 determinations)”) is 3.2 nM; the “CDC EC50 [nM], CHO-transfectants (mean from 3 determinations)” value came to 2.93 nM. Moreover, in experiment [5], the “MM-samples (max. spec. Killing), 4 hrs incubation” value (“MM-samples (max. spec. Killing)” below) came to 4%; the “Namalwa (max. spec. Killing), o/n incubation” value (from here on “Namalwa (max. spec. Killing)”) was less than 1%; the “Raji (max. spec. killing), o/n incubation” value (“Raji (max. spec. killing)” for short) came to 4%. Also, the binding result with bovine serum albumine [6] is given as “no binding (tested: 10 µg/ml)”. Moreover, the binding result in experiment [7] is reported as “no binding (tested: 10 µg/ml)”.

B2: MOR03080 human-mouse chimeric IgG2a (antibody, V domains shown)
VH: QVQLVESGGGLVQPGGSLRLSCAASGFTFSSYGMHWVRQAPGKGLEWVSNIYSDGSNTFYADSVKGRFTISRDNSKNTLYLQMNSLRAEDTAVYYCARNMYRWPFHYFFDYWGQGTLVTVSS
VL: DIELTQPPSVSVAPGQTARISCSGDNIGNKYVSWYQQKPGQAPVVVIYGDNNRPSGIPERFSGSNSGNTATLTISGTQAEDEADYYCSSYDSSYFVFGGGTKLTVLG
notes: Chimeric IgG2a: human variable regions of MOR03080 and murine constant regions; also called MAb#3 (chimeric: human variable domaine/murine Fc 2a); mu03080
For the molecule B2, the binding result with bovine serum albumine [8] is recorded as “no binding (tested: 10 µg/ml)”; in experiment [9] it was “no binding (tested: 10 µg/ml)”; in experiment [10], “binds”.

B3: MOR03080 Fab (Fab, V domains shown)
VH: QVQLVESGGGLVQPGGSLRLSCAASGFTFSSYGMHWVRQAPGKGLEWVSNIYSDGSNTFYADSVKGRFTISRDNSKNTLYLQMNSLRAEDTAVYYCARNMYRWPFHYFFDYWGQGTLVTVSS
VL: DIELTQPPSVSVAPGQTARISCSGDNIGNKYVSWYQQKPGQAPVVVIYGDNNRPSGIPERFSGSNSGNTATLTISGTQAEDEADYYCSSYDSSYFVFGGGTKLTVLG
notes: also called antibody no
As for B3, binding in experiment [11] was put at a Kd of 27.5 nM.

B4: MOR03100 human IgG1 (antibody, V domains shown)
VH: QVQLVESGGGLVQPGGSLRLSCAASGFTFSSNGMSWVRQAPGKGLEWVSNISYLSSSTYYADSVKGRFTISRDNSKNTLYLQMNSLRAEDTAVYYCARFYGYFNYADVWGQGTLVTVSS
VL: DIELTQPPSVSVAPGQTARISCSGDNIGHYYASWYQQKPGQAPVLVIYRDNDRPSGIPERFSGSNSGNTATLTISGTQAEDEADYYCQSYDYLHDFVFGGGTKLTVLG
notes: also called LAC 3100; MAb#4
B4 showed a Kd in [1] of 6.31 nM. Moreover, in experiment [4], the “ADCC EC50 [nM], LP-1 target cells” value was determined as 1 nM; the “ADCC EC50 [nM], RPMI8226 target cells” value was 0.28 nM; the “CDC EC50 … (mean from 2 determinations)” value is 10.9 nM; the “CDC EC50 [nM], CHO-transfectants (mean from 4 determinations)” value came to 13.6 nM. The binding result with bovine serum albumine [6] is recorded as “no binding (tested: 10 µg/ml)”. In addition, the binding result in experiment [7] was “no binding (tested: 10 µg/ml)”.

B5: MOR03100 Fab (Fab, V domains shown)
VH: QVQLVESGGGLVQPGGSLRLSCAASGFTFSSNGMSWVRQAPGKGLEWVSNISYLSSSTYYADSVKGRFTISRDNSKNTLYLQMNSLRAEDTAVYYCARFYGYFNYADVWGQGTLVTVSS
VL: DIELTQPPSVSVAPGQTARISCSGDNIGHYYASWYQQKPGQAPVLVIYRDNDRPSGIPERFSGSNSGNTATLTISGTQAEDEADYYCQSYDYLHDFVFGGGTKLTVLG
notes: also called LAC 3100; antibody no; 3100
Consider B5, for which, in experiment [11], the dissociation constant (Kd) was 10 nM.

B6: MOR03077 human IgG1 (antibody, V domains shown)
VH: QVQLVQSGAEVKKPGASVKVSCKASGYTFTSYSINWVRQAPGQGLEWMGYIDPNRGNTNYAQKFQGRVTMTRDTSISTAYMELSSLRSEDTAVYYCAREYIYFIHGMLDFWGQGTLVTVSS
VL: DIVMTQSPLSLPVTPGEPASISCRSSQSLLFIDGNNYLNWYLQKPGQSPQLLIYLGSNRASGVPDRFSGSGSGTDFTLKISRVEAEDVGVYYCQQYSSKSATFGQGTKVEIKR
notes: also called MAb#1
In the case of B6, the “ADCC EC50 values in [nM], MM Samples (purified primary MM-cells)” value in [12] amounted to 0.08 nM. In [1], this molecule gave a Kd of 0.89 nM. Moreover, in [4], the “ADCC EC50 [nM], LP-1 target cells” value amounted to 0.6 nM; the “ADCC EC50 [nM], RPMI8226 target cells” value amounted to 0.08 nM; the “CDC EC50 … (mean from 2 determinations)” value was found to be 0.8 nM; the “CDC EC50 [nM], CHO-transfectants (mean from 3 determinations)” value amounted to 0.94 nM. In addition, in experiment [5], the “MM-samples (max. spec. Killing)” value came to 21%; the “Namalwa (max. spec. Killing)” value was 11%; the “Raji (max. spec. killing)” value is 21%. Further, the binding result in the experiment with bovine serum albumine [6] was “no binding (tested: 10 µg/ml)”. Besides, the binding result in [7] is “no binding (tested: 10 µg/ml)”. For the same molecule, in experiment [13], the “CDC EC50, LP-1 cells” value came to 5.6 nM and the “CDC EC50 on hCD38-transfectants, fold better than reference antibody chOKT10” value came to 3 fold.

B7: MOR03077 Fab (Fab, V domains shown)
VH: QVQLVQSGAEVKKPGASVKVSCKASGYTFTSYSINWVRQAPGQGLEWMGYIDPNRGNTNYAQKFQGRVTMTRDTSISTAYMELSSLRSEDTAVYYCAREYIYFIHGMLDFWGQGTLVTVSS
VL: DIVMTQSPLSLPVTPGEPASISCRSSQSLLFIDGNNYLNWYLQKPGQSPQLLIYLGSNRASGVPDRFSGSGSGTDFTLKISRVEAEDVGVYYCQQYSSKSATFGQGTKVEIKR
notes: also called antibody no
Take B7: in experiment [11], the Kd was 56 nM.

B8: MOR03079 human IgG1 (antibody, V domains shown)
VH: QVQLVESGGGLVQPGGSLRLSCAASGFTFSNYGMHWVRQAPGKGLEWVSNIRSDGSWTYYADSVKGRFTISRDNSKNTLYLQMNSLRAEDTAVYYCARRYWSKSHASVTDYWGQGTLVTVSS
VL: DIQMTQSPSSLSASVGDRVTITCRASQDISAFLNWYQQKPGKAPKLLIYKVSNLQSGVPSRFSGSGSGTDFTLTISSLQPEDFATYYCQQAYSGSITFGQGTKVEIKR
notes: also called MAb#2
For B8, the Kd in [1] worked out at 0.6 nM. Besides, in experiment [4], the “ADCC EC50 [nM], LP-1 target cells” value was 0.09 nM; the “ADCC EC50 [nM], RPMI8226 target cells” value is 0.04 nM; the “CDC EC50 [nM], CHO-transfectants” value is 0.41 nM. In addition, in experiment [5], the “MM-samples (max. spec. Killing)” value amounted to 24%; the “Namalwa (EC50), killing by cross-linking” value was 0.08 nM; the “Namalwa (max. spec. Killing)” value stood at 18%; the “Raji (EC50), killing by cross-linking” value was 0.08 nM. The “Raji (max. spec. killing)” value in [5] stood at 21%. Moreover, the binding result in the experiment with bovine serum albumine [6] is “no binding (tested: 10 µg/ml)”. In experiment [7], the binding result was “no binding (tested: 10 µg/ml)”. Further, in experiment [13], the “CDC EC50, LP-1 cells” value came to 0.55 nM.

B9: MOR03079 human-mouse chimeric IgG2a (antibody, V domains shown)
VH: QVQLVESGGGLVQPGGSLRLSCAASGFTFSNYGMHWVRQAPGKGLEWVSNIRSDGSWTYYADSVKGRFTISRDNSKNTLYLQMNSLRAEDTAVYYCARRYWSKSHASVTDYWGQGTLVTVSS
VL: DIQMTQSPSSLSASVGDRVTITCRASQDISAFLNWYQQKPGKAPKLLIYKVSNLQSGVPSRFSGSGSGTDFTLTISSLQPEDFATYYCQQAYSGSITFGQGTKVEIKR
notes: Chimeric IgG2a: human variable regions of MOR03079 fused to murine Fc gamma 2a constant regions; also called MAb#2 (chimeric: human variable domaine/murine Fc 2a); mu03079
Regarding B9, the binding result (with bovine serum albumine [8]; in experiment [9]) was “no binding (tested: 10 µg/ml)” in each case.

B10: MOR03079 Fab (Fab, V domains shown)
VH: QVQLVESGGGLVQPGGSLRLSCAASGFTFSNYGMHWVRQAPGKGLEWVSNIRSDGSWTYYADSVKGRFTISRDNSKNTLYLQMNSLRAEDTAVYYCARRYWSKSHASVTDYWGQGTLVTVSS
VL: DIQMTQSPSSLSASVGDRVTITCRASQDISAFLNWYQQKPGKAPKLLIYKVSNLQSGVPSRFSGSGSGTDFTLTISSLQPEDFATYYCQQAYSGSITFGQGTKVEIKR
notes: also called antibody no
With B10, binding in [11] was put at a Kd of 2.4 nM.
